Data reported in the RNAGym collection of RNA variant scans (doi:10.7554/elife.90254).

B1: LINE1-full (parent)
chain: UACGUAGGUGGUUUUCCCCUGAUAGUGCUAAGGGGGCCUGGAAGUUUGGACUGGGCAGAGCUCAACACAGCGUGGCAAAGUGGCUGUGGCUAGACUGCCUCUCUGGAUUCCUCGUCACUCAGCAGGGCAUCUCUGAGAGAAAUGCC

Variants of: B1
Test: self-cleavage, relative activity (ratio to wild type); higher = more cleavage; in vitro, sequencing; the parent is a self-cleaving ribozyme
Work on UACGAAGGUGGUUUUCCCCUGAUAGUGCUAAGGGGGCCUGGAAGUUUGGACUGGGCGGAGCUCAACACAGCGUGGCAAAGUGGCUGUGGCUAGACUGCCUCUCUGGAUUCCUCGUCACUCAGCAGGGCAUCUCUGAGAGAAAUGCC yielded a self-cleavage of 0.83. With UACGAAGGUGGUUUUCCCCUGAUAGUGCUAAGGGGGCCUGGAAGUUUGGACUGGGCUGAGCUCAACACAGCGUGGCAAAGUGGCUGUGGCUAGACUGCCUCUCUGGAUUCCUCGUCACUCAGCAGGGCAUCUCUGAGAGAAAUGCC the self-cleavage was 0.34. Work on UACUUAGGUGGUUUUCCCCUGAUAGUGCUAAGGGGGCCUGGAAGUUUGGACUGGGCAGAGCUCAACACAGCGUGGCAAAGUGGCUGUGGCUAGACUGCCUCUCUGGAUUCCUCGUCACCCAGCAGGGCAUCUCUGAGAGAAAUGCC yielded a self-cleavage of 1.31. Work on UACUCAGGUGGUUUUCCCCUGAUAGUGCUAAGGGGGCCUGGAAGUUUGGACUGGGCAGAGCUCAACACAGCGUGGCAAAGUGGCUGUGGCUAGACUGCCUCUCUGGAUUCCUCGUCACUCAGCAGGGCAUCUCUGAGAGAAAUGCC yielded a self-cleavage of 0.79. Work on UACGAAGGUGGUUUUCCCCUGAUAGUGCUAAGGGGGCCUGGAAGUUUGGACUGGGCAGAGCUCAACACAGCGUGGCAAAGUGGCUGUGGCUAGACUGCCUCUCUGGAUUCCUCGUCACUCAGCAGGGCAUCUCUGAGAGAAAUGCC yielded a self-cleavage of 0.95. In the case of UACUUAGGUGGUUUUCCCCUGAUAGUGCUAAGGGGGCCUGGAAGUUUGGACUGGGCAGAGCUCAACACAGCGUGGCAGAGUGGCUGUGGCUAGACUGCCUCUCUGGAUUCCUCGUCACUCAGCAGGGCAUCUCUGAGAGAAAUGCC, the self-cleavage is reported as 1.05. UACUUAGGUGGUUUUCCCCUGAUAGUGCUAAGGGGGCCAGGAAGUUUGGACUGGGCAGAGCUCAACACAGCGUGGCAAAGUGGCUGUGGCUAGACUGCCUCUCUGGAUUCCUCGUCACUCAGCAGGGCAUCUCUGAGAGAAAUGCC gave a self-cleavage of 1.95. UACGAAGGUGGUUUUCCCCUGAUAGUGCUAAGGGGGCCUGGAAGUUUGGACUGGGCAGAGCUCCACACAGCGUGGCAAAGUGGCUGUGGCUAGACUGCCUCUCUGGAUUCCUCGUCACUCAGCAGGGCAUCUCUGAGAGAAAUGCC gave a self-cleavage of 0.19. For UACUUAGGUGGUUUUCCCCUGAUAGUGCUAAGGGGGCCUGGAAGUUUGGACUGGGCAGAGCUCAACACAGCGUGGCAAAGUGGCUGUGGCUAGACUGCCUCUCUGGAUUCCUCGUCACUCUGCAGGGCAUCUCUGAGAGAAAUGCC, the self-cleavage was 1.23. UACUUAGGUGGUUUUCCCCUGAUAGUGCUAAGGGGGCCUGGAAGUUUGGACUGGGCAGAGCUCAACACAGCGUGGCAAAGCGGCUGUGGCUAGACUGCCUCUCUGGAUUCCUCGUCACUCAGCAGGGCAUCUCUGAGAGAAAUGCC gave a self-cleavage of 0.2. For UACUUAGGUGGUUUUCCCCUGAUAGUGCUAAGGGGGCCUGGAAGUUUGGACAGGGCAGAGCUCAACACAGCGUGGCAAAGUGGCUGUGGCUAGACUGCCUCUCUGGAUUCCUCGUCACUCAGCAGGGCAUCUCUGAGAGAAAUGCC, the self-cleavage was 1.01. Variant UACUUAGGUGGUUUUCCCCUGAUAGUGCUAAGGGGGCCUGGAAGUUUGGACUGGGCAGAGCUCAACACAGCGUGGCAAAGUGGCUGUGGCUAGACUGCCUCUCUGGAUUCCUCGUCACUCAGCAGGGCAUCUCAGAGAGAAAUGCC has a self-cleavage of 1.07. For UACUUAGGUGGUUUUCCCCUGAUAGUGCUAAGGGGGCCUGGAAGUUUGGACUGGGCAGAGCUCAACACAGCGUGGCAAAGUGGCUGUGGCUAGACUGCCUCUCUGGAUUCCUCGUCACUCAGCAGGGCAUCUCUGGGAGAAAUGCC, the self-cleavage was 1.91. With UACGAAGGUGGUUUUCCCCUGAUAGUGCUAAGGGGGCCUGGAAGUUUGGACUGGGCAGAGCUCACCACAGCGUGGCAAAGUGGCUGUGGCUAGACUGCCUCUCUGGAUUCCUCGUCACUCAGCAGGGCAUCUCUGAGAGAAAUGCC the self-cleavage was 0.08. In the case of UACGAAGGUGGUUUUCCCCUGAUAGUGCUAAGGGGGCCUGGAGGUUUGGACUGGGCAGAGCUCAACACAGCGUGGCAAAGUGGCUGUGGCUAGACUGCCUCUCUGGAUUCCUCGUCACUCAGCAGGGCAUCUCUGAGAGAAAUGCC, the self-cleavage is reported as 0.76. UACUUAGGUGGUUUUCCCCUGAUAGUGCUAAGGGGGCCUGGAAGUUUGGACUGGGCAGAGCUCAACACAGCGUGGCAAAGUGGCUGUGGCUAGACUGCCUCUCUGGAUCCCUCGUCACUCAGCAGGGCAUCUCUGAGAGAAAUGCC showed a self-cleavage of 1.07. In the case of UACGAAGGUGGUUUUCCCCUGAUAGUGCUAAGGGGGCCUGGAAGUUUGGACUGGGCAGAGCUCAACGCAGCGUGGCAAAGUGGCUGUGGCUAGACUGCCUCUCUGGAUUCCUCGUCACUCAGCAGGGCAUCUCUGAGAGAAAUGCC, the self-cleavage is reported as 0.7. UACGAGGGUGGUUUUCCCCUGAUAGUGCUAAGGGGGCCUGGAAGUUUGGACUGGGCAGAGCUCAACACAGCGUGGCAAAGUGGCUGUGGCUAGACUGCCUCUCUGGAUUCCUCGUCACUCAGCAGGGCAUCUCUGAGAGAAAUGCC showed a self-cleavage of 2.12. In the case of UACGAUGGUGGUUUUCCCCUGAUAGUGCUAAGGGGGCCUGGAAGUUUGGACUGGGCAGAGCUCAACACAGCGUGGCAAAGUGGCUGUGGCUAGACUGCCUCUCUGGAUUCCUCGUCACUCAGCAGGGCAUCUCUGAGAGAAAUGCC, the self-cleavage is reported as 1.23. With UACUUAGGUGGUUUUCCCCUGAUAGUGCUAAGGGGGCCUGGAAGUUUGGACUGGGCAGAGCUCAACACAGCGUGGCAAAGUGGCUGUGGCUAGACUGCCUCUCUGGAUUCCUCGUCACUCAGCAGGGCAUCUCUGAGUGAAAUGCC the self-cleavage was 1.19.
